Test [1] deals with T1, human FcγRIIIa type V (human, UniProt P08637 17-208, limits assumed).
T1 construct: also called FcyRIIIa; FcγRIIIaV
In words: SPR (Biacore), FcγR over captured antibody; binding amount relative to IL6R-BF648/IL6R-L x100. On the technique in general: Surface plasmon resonance follows binding to a sensor surface in real time, without labels.
T1 sequence (P08637 other isoform, or with tags, fused parts or gaps limits assumed): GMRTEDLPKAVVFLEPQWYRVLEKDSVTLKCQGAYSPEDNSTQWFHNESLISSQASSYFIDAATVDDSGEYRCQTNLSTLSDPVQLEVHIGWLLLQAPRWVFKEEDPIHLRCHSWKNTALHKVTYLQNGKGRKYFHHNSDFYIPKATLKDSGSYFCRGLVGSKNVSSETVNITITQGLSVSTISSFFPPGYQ

For test [2], the target named is T2, human FcγRIa (human, UniProt P12314 16-292, limits assumed).
T2 construct: also called FcyRIa; CD64
The description is as above.
T2 sequence (P12314 16-292 limits assumed): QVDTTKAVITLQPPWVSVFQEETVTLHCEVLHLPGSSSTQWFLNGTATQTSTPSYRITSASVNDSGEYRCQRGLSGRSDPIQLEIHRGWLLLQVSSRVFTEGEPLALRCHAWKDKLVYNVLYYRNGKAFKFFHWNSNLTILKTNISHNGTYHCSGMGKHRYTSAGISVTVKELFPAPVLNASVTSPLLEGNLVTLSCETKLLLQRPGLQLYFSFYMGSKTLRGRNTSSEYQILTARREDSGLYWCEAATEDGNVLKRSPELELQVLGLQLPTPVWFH

The target of test [3] is T3, human FcγRIIa type H (human, UniProt P12318 36-217).
T3 construct: also called FcyRIIaH; FcγRIIa(H)
T3 sequence: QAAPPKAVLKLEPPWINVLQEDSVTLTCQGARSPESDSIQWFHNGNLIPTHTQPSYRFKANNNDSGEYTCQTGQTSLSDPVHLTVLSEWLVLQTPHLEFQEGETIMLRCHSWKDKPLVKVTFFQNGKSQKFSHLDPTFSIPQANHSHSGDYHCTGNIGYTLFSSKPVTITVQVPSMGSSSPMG
The description is as above.

Test [4] concerns the target T4, human FcγRIIb (human, UniProt P31994 43-217, limits assumed).
T4 construct: also called FcgRIIb; FcγIIB
T4 sequence: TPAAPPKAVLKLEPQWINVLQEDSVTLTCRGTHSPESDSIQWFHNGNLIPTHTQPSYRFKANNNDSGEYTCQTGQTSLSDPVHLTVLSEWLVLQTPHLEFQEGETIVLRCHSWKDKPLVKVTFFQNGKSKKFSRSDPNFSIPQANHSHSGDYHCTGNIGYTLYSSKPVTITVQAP
Put plainly: SPR (Biacore), FcγR over captured antibody; binding amount divided by that of IL6R-BF648/IL6R-L x 100.
Method: (§1) According to the following method, relative binding activities were calculated for the results of analyzing interactions with the respective FcγRs.

For test [5], the target named is T5, human FcγRIIa type H (human, UniProt P12318 36-217).
T5 construct: also called FcgRIIaH; FcγRIIa(H)
T5 sequence: T3 sequence
The description is as above.
Method: as §1

Test [6] addresses T6, human FcγRIa (human, UniProt P12314 16-292, limits assumed).
T6 construct: also called FcgRIa; FcγRI (CD64)
The description is as above.
T6 sequence (P12314 16-292 limits assumed): as the sequence (P12314 16-292 limits assumed) above
Method: as §1

For test [7], the target named is T7, human FcγRIIIa type V (human, UniProt P08637 17-208, limits assumed).
T7 construct: also called FcgRIIIaV; FcγRIIIa(V)
The description is as above.
T7 sequence (P08637 other isoform, or with tags, fused parts or gaps limits assumed): as the sequence (P08637 other isoform, or with tags, fused parts or gaps limits assumed) above
Method: as §1

In a further test the target is T8, human FcγRIIa type R (human, UniProt P12318 36-217).
T8 construct: also called FcgRIIaR; FcγRIIa(R)
T8 chain: T3 sequence with H133R
The test is described as above.

The target of test [8] is T9, human FcγRIIb (human, UniProt P31994 43-217, limits assumed).
T9 construct: also called FcyRIfb; FcγIIB
T9 sequence: T4 sequence
In words: SPR (Biacore), FcγR over captured antibody; binding amount relative to IL6R-BF648/IL6R-L x100.

Residue numbers refer to the chain shown, from its start.

Method for human FcγRIIa type R: as §1

B1: IL6R-2B128/IL6R-L (antibody, human IgG1, name in EU numbering)
heavy: QVQLQESGPGLVKPSETLSLTCAVSGHSISHDHAWSWVRQPPGEGLEWIGFISYSGITNYNPSLQGRVTISRDNSKNTLYLQMNSLRAEDTAVYYCARSLARTTAMDYWGEGTLVTVSSASTKGPSVFPLAPSSKSTSGGTAALGCLVKDYFPEPVTVSWNSGALTSGVHTFPAVLQSSGLYSLSSVVTVPSSSLGTQTYICNVNHKPSNTKVDKKVEPKSCDKTHTCPPCPAPELLGGDSVFLFPPKPKDTLMISRTPEVTCVVVDVSHEDPEVKFNWYVDGVEVHNAKTKPREEQDNSTYRVVSVLTVLHQDWLNGKEYKCKVSNKALPAPIEKTISKAKGQPREPQVYTLPPSRDELTKNQVSLTCLVKGFYPSDIAVEWESNGQPENNYKTTPPVLDSDGSFFLYSKLTVDKSRWQQGNVFSCSVMHEALHNHYTQESLSLSP
light: DIQMTQSPSSLSASVGDRVTITCRASQDISSYLNWYQQKPGKAPKLLIYYTSRLHSGVPSRFSGSGSGTDFTFTISSLQPEDIATYYCQQGNTLPYTFGQGTKVEIK
Regarding B1, the relative binding with human FcγRIIIa type V [1] is 96 % of IL6R-BF648/IL6R-L; with human FcγRIa [2], 95 % of IL6R-BF648/IL6R-L; with human FcγRIIa type H [3] it was 37 % of IL6R-BF648/IL6R-L.

B2: IL6R-BP179/IL6R-L (antibody, human IgG1, name in EU numbering)
heavy: B1 heavy with G239D, P273G, D298Y, K328A, A332K
light: B1 light
notes: the list runs over r45 and r46; copies: 2 + 2
Regarding B2, the relative binding activity with human FcγRIIb [4] is 177 relative (IL6R-BF648/IL6R-L = 100); with human FcγRIIa type H [5], 226 relative (IL6R-BF648/IL6R-L = 100); with human FcγRIa [6], 39 relative (IL6R-BF648/IL6R-L = 100); with human FcγRIIIa type V [7], 125 relative (IL6R-BF648/IL6R-L = 100); in the test with human FcγRIIa type R it was 570 relative (IL6R-BF648/IL6R-L = 100).

B3: IL6R-BP112/IL6R-L (antibody, human IgG1, name in EU numbering)
heavy: B1 heavy with P273G, D298Y
light: B1 light
Turning to B3, the relative binding in the test with human FcγRIa [2] is 119 % of IL6R-BF648/IL6R-L; with human FcγRIIb [8], 157 % of IL6R-BF648/IL6R-L; with human FcγRIIa type H [3], 113 % of IL6R-BF648/IL6R-L.

B4: IL6R-BP183/IL6R-L (antibody, human IgG1, name in EU numbering)
heavy: B1 heavy with E235D, L236Y, P273G, D298Y, K328A, A332K
light: B1 light
notes: the list runs over r52 and r53; copies: 2 + 2
On to B4, for which the relative binding activity in the test with human FcγRIIb [4] is 164 relative (IL6R-BF648/IL6R-L = 100); in the test with human FcγRIIa type H [5], 191 relative (IL6R-BF648/IL6R-L = 100); with human FcγRIa [6], 83 relative (IL6R-BF648/IL6R-L = 100); in the test with human FcγRIIIa type V [7], 113 relative (IL6R-BF648/IL6R-L = 100); with human FcγRIIa type R it was 423 relative (IL6R-BF648/IL6R-L = 100).

B5: IL6R-BP177/IL6R-L (antibody, human IgG1, name in EU numbering)
heavy: B1 heavy with E235D, L236Y, G239D, P273G, D298Y, K328D, A332K
light: B1 light
notes: the list runs over r41 and r42; copies: 2 + 2
Regarding B5, the relative binding activity with human FcγRIIb [4] was 177 relative (IL6R-BF648/IL6R-L = 100); with human FcγRIIa type H [5], 409 relative (IL6R-BF648/IL6R-L = 100); with human FcγRIa [6], 57 relative (IL6R-BF648/IL6R-L = 100); with human FcγRIIIa type V [7], 186 relative (IL6R-BF648/IL6R-L = 100); with human FcγRIIa type R it was 691 relative (IL6R-BF648/IL6R-L = 100).

B6: IL6R-BP126/IL6R-L (antibody, human IgG1, name in EU numbering)
heavy: B1 heavy with D298Y, K328L
light: B1 light
On to B6, for which the relative binding is 113 % of IL6R-BF648/IL6R-L with human FcγRIa [2] and 132 % of IL6R-BF648/IL6R-L with human FcγRIIa type H [3].

B7: IL6R-BP078/IL6R-L (antibody, human IgG1, name in EU numbering)
heavy: B1 heavy with D298Y, A332M
light: B1 light
Regarding B7, the relative binding with human FcγRIIIa type V [1] is 91 % of IL6R-BF648/IL6R-L; with human FcγRIa [2], 106 % of IL6R-BF648/IL6R-L; with human FcγRIIa type H [3] it was 89 % of IL6R-BF648/IL6R-L.

B8: IL6R-BP144/IL6R-L (antibody, human IgG1, name in EU numbering)
heavy: B1 heavy with G239D, D298Y, K328A
light: B1 light
notes: copies: 2 + 2
B8: the relative binding activity in the test with human FcγRIIb [4] was 121 relative (IL6R-BF648/IL6R-L = 100); in the test with human FcγRIIa type H [5] it was 108 relative (IL6R-BF648/IL6R-L = 100); with human FcγRIa [6], 64 relative (IL6R-BF648/IL6R-L = 100); in the test with human FcγRIIIa type V [7], 128 relative (IL6R-BF648/IL6R-L = 100); with human FcγRIIa type R, 204 relative (IL6R-BF648/IL6R-L = 100).

B9: IL6R-BP147/IL6R-L (antibody, human IgG1, name in EU numbering)
heavy: B1 heavy with L236Y, G239D, D298Y, K328A, A332K
light: B1 light
notes: the list runs over r28 and r29; copies: 2 + 2
Take B9: the relative binding activity with human FcγRIIb [4] was 177 relative (IL6R-BF648/IL6R-L = 100); in the test with human FcγRIIa type H [5], 582 relative (IL6R-BF648/IL6R-L = 100); in the test with human FcγRIa [6], 24 relative (IL6R-BF648/IL6R-L = 100); with human FcγRIIIa type V [7] it was 209 relative (IL6R-BF648/IL6R-L = 100); in the test with human FcγRIIa type R it was 650 relative (IL6R-BF648/IL6R-L = 100).

B10: IL6R-BP120/IL6R-L (antibody, human IgG1, name in EU numbering)
heavy: B1 heavy with D298Y, K328E
light: B1 light
With B10, the relative binding is 125 % of IL6R-BF648/IL6R-L with human FcγRIa [2] and 114 % of IL6R-BF648/IL6R-L with human FcγRIIb [8].

B11: IL6R-BP150/IL6R-L (antibody, human IgG1, name in EU numbering)
heavy: B1 heavy with L236Y, G239D, D298Y, K328A, A332R
light: B1 light
notes: the list runs over r34 and r35; copies: 2 + 2
As for B11, the relative binding activity in the test with human FcγRIIb [4] was 183 relative (IL6R-BF648/IL6R-L = 100); with human FcγRIIa type H [5], 770 relative (IL6R-BF648/IL6R-L = 100); with human FcγRIa [6], 30 relative (IL6R-BF648/IL6R-L = 100); in the test with human FcγRIIIa type V [7] it was 204 relative (IL6R-BF648/IL6R-L = 100); in the test with human FcγRIIa type R it was 757 relative (IL6R-BF648/IL6R-L = 100).

B12: IL6R-G1d/IL6R-L (antibody, human IgG1)
heavy: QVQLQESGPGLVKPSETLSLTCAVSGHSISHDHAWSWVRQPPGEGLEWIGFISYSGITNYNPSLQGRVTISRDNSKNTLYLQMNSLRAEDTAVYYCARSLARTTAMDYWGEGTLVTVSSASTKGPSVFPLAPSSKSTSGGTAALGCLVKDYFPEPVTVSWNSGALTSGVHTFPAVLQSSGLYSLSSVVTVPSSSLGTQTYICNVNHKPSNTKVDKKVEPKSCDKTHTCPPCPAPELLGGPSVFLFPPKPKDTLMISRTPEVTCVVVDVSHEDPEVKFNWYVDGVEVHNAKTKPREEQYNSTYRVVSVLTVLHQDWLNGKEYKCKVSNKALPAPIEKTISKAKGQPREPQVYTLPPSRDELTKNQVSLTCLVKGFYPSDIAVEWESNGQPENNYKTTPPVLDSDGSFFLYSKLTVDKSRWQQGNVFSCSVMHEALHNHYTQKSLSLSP
light: B1 light
notes: Anti-human IL-6 receptor human IgG1 with G1d constant region (C-terminal Gly and Lys removed); template used for producing IL6R-B3; also called IgG1; copies: 2 + 2
B12: the relative binding activity in the test with human FcγRIIb [4] is 62 relative (IL6R-BF648/IL6R-L = 100); with human FcγRIIa type H [5] it was 1670 relative (IL6R-BF648/IL6R-L = 100); with human FcγRIa [6], 140 relative (IL6R-BF648/IL6R-L = 100); with human FcγRIIIa type V [7], 3350 relative (IL6R-BF648/IL6R-L = 100); with human FcγRIIa type R, 650 relative (IL6R-BF648/IL6R-L = 100).

B13: IL6R-BP117/IL6R-L (antibody, human IgG1, name in EU numbering)
heavy: B1 heavy with D298Y, K328D
light: B1 light
Take B13: the relative binding with human FcγRIa [2] was 124 % of IL6R-BF648/IL6R-L; in the test with human FcγRIIb [8] it was 118 % of IL6R-BF648/IL6R-L; with human FcγRIIa type H [3], 96 % of IL6R-BF648/IL6R-L.

B14: IL6R-BP149/IL6R-L (antibody, human IgG1, name in EU numbering)
heavy: B1 heavy with E235D, L236Y, G239D, K328A, A332K
light: B1 light
notes: the list runs over r32 and r33; copies: 2 + 2
As for B14, the relative binding activity is 173 relative (IL6R-BF648/IL6R-L = 100) with human FcγRIIb [4]; 401 relative (IL6R-BF648/IL6R-L = 100) with human FcγRIIa type H [5]; 29 relative (IL6R-BF648/IL6R-L = 100) in the test with human FcγRIa [6]; 186 relative (IL6R-BF648/IL6R-L = 100) in the test with human FcγRIIIa type V [7]; 539 relative (IL6R-BF648/IL6R-L = 100) in the test with human FcγRIIa type R.

B15: IL6R-BP180/IL6R-L (antibody, human IgG1, name in EU numbering)
heavy: B1 heavy with G239D, P273G, D298Y, A332K
light: B1 light
notes: copies: 2 + 2
On to B15, for which the relative binding activity in the test with human FcγRIIb [4] was 179 relative (IL6R-BF648/IL6R-L = 100); with human FcγRIIa type H [5], 203 relative (IL6R-BF648/IL6R-L = 100); in the test with human FcγRIa [6], 29 relative (IL6R-BF648/IL6R-L = 100); in the test with human FcγRIIIa type V [7], 100 relative (IL6R-BF648/IL6R-L = 100); with human FcγRIIa type R, 602 relative (IL6R-BF648/IL6R-L = 100).

B16: IL6R-BP145/IL6R-L (antibody, human IgG1, name in EU numbering)
heavy: B1 heavy with L236Y, G239D, D298Y
light: B1 light
notes: copies: 2 + 2
Turning to B16, the relative binding activity in the test with human FcγRIIb [4] is 152 relative (IL6R-BF648/IL6R-L = 100); with human FcγRIIa type H [5], 224 relative (IL6R-BF648/IL6R-L = 100); with human FcγRIa [6], 41 relative (IL6R-BF648/IL6R-L = 100); with human FcγRIIIa type V [7], 153 relative (IL6R-BF648/IL6R-L = 100); with human FcγRIIa type R, 350 relative (IL6R-BF648/IL6R-L = 100).

The values are drawn from US20230257470A1 (published 2023).
